Results on six molecules are retold here after US20250304643A1 (BAINAN BIOTECH, published 2025).

The target of assay [1] is T1, human glucagon-like peptide-2 receptor (human, UniProt O95838 1-553).
T1 sequence (looked up): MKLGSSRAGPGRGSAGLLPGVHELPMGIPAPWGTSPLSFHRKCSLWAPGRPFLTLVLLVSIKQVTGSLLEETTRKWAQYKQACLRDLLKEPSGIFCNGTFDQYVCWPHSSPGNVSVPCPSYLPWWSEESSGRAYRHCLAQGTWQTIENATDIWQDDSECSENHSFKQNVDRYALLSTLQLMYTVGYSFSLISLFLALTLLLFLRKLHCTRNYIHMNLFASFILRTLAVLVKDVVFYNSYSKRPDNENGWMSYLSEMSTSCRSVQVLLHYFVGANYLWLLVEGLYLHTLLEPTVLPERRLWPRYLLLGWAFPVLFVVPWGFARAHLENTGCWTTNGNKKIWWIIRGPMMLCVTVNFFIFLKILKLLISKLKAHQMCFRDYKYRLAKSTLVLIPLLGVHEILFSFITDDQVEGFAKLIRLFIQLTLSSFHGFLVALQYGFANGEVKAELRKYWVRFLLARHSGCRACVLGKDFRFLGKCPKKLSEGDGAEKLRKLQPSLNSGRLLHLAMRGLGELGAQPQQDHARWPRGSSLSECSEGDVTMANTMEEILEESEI
The assay can be described thus: cell-based or functional assay.

Assay [2] has as its target T2, human glucose-dependent insulinotropic polypeptide receptor (human, UniProt P48546 22-466).
T2 sequence (looked up): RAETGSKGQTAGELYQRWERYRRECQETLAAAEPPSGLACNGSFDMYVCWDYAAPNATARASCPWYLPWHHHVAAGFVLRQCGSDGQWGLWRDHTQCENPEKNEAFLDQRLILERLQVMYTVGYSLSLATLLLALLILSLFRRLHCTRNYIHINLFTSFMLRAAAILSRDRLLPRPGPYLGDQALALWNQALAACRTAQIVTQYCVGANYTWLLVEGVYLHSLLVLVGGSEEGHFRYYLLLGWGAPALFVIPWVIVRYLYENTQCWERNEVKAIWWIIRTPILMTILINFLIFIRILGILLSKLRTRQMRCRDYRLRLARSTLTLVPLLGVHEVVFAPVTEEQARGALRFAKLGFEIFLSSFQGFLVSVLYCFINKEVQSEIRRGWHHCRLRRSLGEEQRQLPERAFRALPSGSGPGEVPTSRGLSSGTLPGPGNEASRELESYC
Briefly: cell-based or functional assay.

*1 amine or outer side, *2 acyl side, *3 side chain or, on linkers, in order; H or OH if unused. Where no end group is shown, it is not given here. Side-chain parts run from the residue outwards. [ ]: non-standard residue; d: D form. The star is where a group is joined. C16 diacid = O=C(O)CCCCCCCCCCCCCCC(=O)*; γGlu = O=C(O)[C@H](CCC(=O)[*:2])N[*:1]; Palmitoyl = CCCCCCCCCCCCCCCC(=O)*; Decanoyl = CCCCCCCCCC(=O)*; Aib = CC(C)(N)C(=O)O

B1: Compound no. 27 (peptide)
peptide: H[Aib]EGK([γGlu-Palmitoyl])FISDYST[Aib]LDNLAARDFINWLIQTKITK-OH
modifications: N-terminus assumed
SMILES: CCCCCCCCCCCCCCCC(=O)N[C@@H](CCC(=O)NCCCC[C@H](NC(=O)CNC(=O)[C@H](CCC(=O)O)NC(=O)C(C)(C)NC(=O)[C@@H](N)Cc1c[nH]cn1)C(=O)N[C@@H](Cc1ccccc1)C(=O)N[C@H](C(=O)N[C@@H](CO)C(=O)N[C@@H](CC(=O)O)C(=O)N[C@@H](Cc1ccc(O)cc1)C(=O)N[C@@H](CO)C(=O)N[C@H](C(=O)NC(C)(C)C(=O)N[C@@H](CC(C)C)C(=O)N[C@@H](CC(=O)O)C(=O)N[C@@H](CC(N)=O)C(=O)N[C@@H](CC(C)C)C(=O)N[C@@H](C)C(=O)N[C@@H](C)C(=O)N[C@@H](CCCNC(=N)N)C(=O)N[C@@H](CC(=O)O)C(=O)N[C@@H](Cc1ccccc1)C(=O)N[C@H](C(=O)N[C@@H](CC(N)=O)C(=O)N[C@@H](Cc1c[nH]c2ccccc12)C(=O)N[C@@H](CC(C)C)C(=O)N[C@H](C(=O)N[C@@H](CCC(N)=O)C(=O)N[C@H](C(=O)N[C@@H](CCCCN)C(=O)N[C@H](C(=O)N[C@H](C(=O)N[C@@H](CCCCN)C(=O)O)[C@@H](C)O)[C@@H](C)CC)[C@@H](C)O)[C@@H](C)CC)[C@@H](C)CC)[C@@H](C)O)[C@@H](C)CC)C(=O)O
Regarding B1, the “Efficacy GLP-2R” value in assay [1] is 108%. Further, the “Efficacy GIPR” value in assay [2] worked out at 98%.

B2: Compound no. 24 (peptide)
peptide: H[Aib]DGK([γGlu-Decanoyl])FISDYST[Aib]LDNLAARDFINWLIQTKITK-OH
modifications: N-terminus assumed
SMILES: CCCCCCCCCC(=O)N[C@@H](CCC(=O)NCCCC[C@H](NC(=O)CNC(=O)[C@H](CC(=O)O)NC(=O)C(C)(C)NC(=O)[C@@H](N)Cc1c[nH]cn1)C(=O)N[C@@H](Cc1ccccc1)C(=O)N[C@H](C(=O)N[C@@H](CO)C(=O)N[C@@H](CC(=O)O)C(=O)N[C@@H](Cc1ccc(O)cc1)C(=O)N[C@@H](CO)C(=O)N[C@H](C(=O)NC(C)(C)C(=O)N[C@@H](CC(C)C)C(=O)N[C@@H](CC(=O)O)C(=O)N[C@@H](CC(N)=O)C(=O)N[C@@H](CC(C)C)C(=O)N[C@@H](C)C(=O)N[C@@H](C)C(=O)N[C@@H](CCCNC(=N)N)C(=O)N[C@@H](CC(=O)O)C(=O)N[C@@H](Cc1ccccc1)C(=O)N[C@H](C(=O)N[C@@H](CC(N)=O)C(=O)N[C@@H](Cc1c[nH]c2ccccc12)C(=O)N[C@@H](CC(C)C)C(=O)N[C@H](C(=O)N[C@@H](CCC(N)=O)C(=O)N[C@H](C(=O)N[C@@H](CCCCN)C(=O)N[C@H](C(=O)N[C@H](C(=O)N[C@@H](CCCCN)C(=O)O)[C@@H](C)O)[C@@H](C)CC)[C@@H](C)O)[C@@H](C)CC)[C@@H](C)CC)[C@@H](C)O)[C@@H](C)CC)C(=O)O
Regarding B2, the “Efficacy GLP-2R” value in assay [1] came out at 90%. Also, the “Efficacy GIPR” value in assay [2] worked out at 113%.

B3: Compound no. 29 (peptide)
peptide: H[Aib]DGTFISDYK([γGlu-Palmitoyl])T[Aib]LDNLAARDFINWLIQTKITK-OH
modifications: N-terminus assumed
SMILES: CCCCCCCCCCCCCCCC(=O)N[C@@H](CCC(=O)NCCCC[C@H](NC(=O)[C@H](Cc1ccc(O)cc1)NC(=O)[C@H](CC(=O)O)NC(=O)[C@H](CO)NC(=O)[C@@H](NC(=O)[C@H](Cc1ccccc1)NC(=O)[C@@H](NC(=O)CNC(=O)[C@H](CC(=O)O)NC(=O)C(C)(C)NC(=O)[C@@H](N)Cc1c[nH]cn1)[C@@H](C)O)[C@@H](C)CC)C(=O)N[C@H](C(=O)NC(C)(C)C(=O)N[C@@H](CC(C)C)C(=O)N[C@@H](CC(=O)O)C(=O)N[C@@H](CC(N)=O)C(=O)N[C@@H](CC(C)C)C(=O)N[C@@H](C)C(=O)N[C@@H](C)C(=O)N[C@@H](CCCNC(=N)N)C(=O)N[C@@H](CC(=O)O)C(=O)N[C@@H](Cc1ccccc1)C(=O)N[C@H](C(=O)N[C@@H](CC(N)=O)C(=O)N[C@@H](Cc1c[nH]c2ccccc12)C(=O)N[C@@H](CC(C)C)C(=O)N[C@H](C(=O)N[C@@H](CCC(N)=O)C(=O)N[C@H](C(=O)N[C@@H](CCCCN)C(=O)N[C@H](C(=O)N[C@H](C(=O)N[C@@H](CCCCN)C(=O)O)[C@@H](C)O)[C@@H](C)CC)[C@@H](C)O)[C@@H](C)CC)[C@@H](C)CC)[C@@H](C)O)C(=O)O
As to B3, the “Efficacy GLP-2R” value in assay [1] was found to be 124%. Besides, the “Efficacy GIPR” value in assay [2] worked out at 104%.

B4: Compound no. 25 (peptide)
peptide: H[Aib]DGK([γGlu-C16 diacid])FISDYST[Aib]LDNLAARDFINWLIQTKITK-OH
modifications: N-terminus assumed
SMILES: CC[C@H](C)[C@H](NC(=O)[C@H](Cc1ccccc1)NC(=O)[C@H](CCCCNC(=O)CC[C@H](NC(=O)CCCCCCCCCCCCCCC(=O)O)C(=O)O)NC(=O)CNC(=O)[C@H](CC(=O)O)NC(=O)C(C)(C)NC(=O)[C@@H](N)Cc1c[nH]cn1)C(=O)N[C@@H](CO)C(=O)N[C@@H](CC(=O)O)C(=O)N[C@@H](Cc1ccc(O)cc1)C(=O)N[C@@H](CO)C(=O)N[C@H](C(=O)NC(C)(C)C(=O)N[C@@H](CC(C)C)C(=O)N[C@@H](CC(=O)O)C(=O)N[C@@H](CC(N)=O)C(=O)N[C@@H](CC(C)C)C(=O)N[C@@H](C)C(=O)N[C@@H](C)C(=O)N[C@@H](CCCNC(=N)N)C(=O)N[C@@H](CC(=O)O)C(=O)N[C@@H](Cc1ccccc1)C(=O)N[C@H](C(=O)N[C@@H](CC(N)=O)C(=O)N[C@@H](Cc1c[nH]c2ccccc12)C(=O)N[C@@H](CC(C)C)C(=O)N[C@H](C(=O)N[C@@H](CCC(N)=O)C(=O)N[C@H](C(=O)N[C@@H](CCCCN)C(=O)N[C@H](C(=O)N[C@H](C(=O)N[C@@H](CCCCN)C(=O)O)[C@@H](C)O)[C@@H](C)CC)[C@@H](C)O)[C@@H](C)CC)[C@@H](C)CC)[C@@H](C)O
B4: in assay [1], the “Efficacy GLP-2R” value was 88% and the “logEC50 GLP-2R” value came out at 9. Further, the “Efficacy GIPR” value in assay [2] stood at 93%.

B5: Compound no. 28 (peptide)
peptide: H[Aib]DGK([γGlu-γGlu-Palmitoyl])FISDYST[Aib]LDNLAARDFINWLIQTKITK-OH
modifications: N-terminus assumed
SMILES: CCCCCCCCCCCCCCCC(=O)N[C@@H](CCC(=O)N[C@@H](CCC(=O)NCCCC[C@H](NC(=O)CNC(=O)[C@H](CC(=O)O)NC(=O)C(C)(C)NC(=O)[C@@H](N)Cc1c[nH]cn1)C(=O)N[C@@H](Cc1ccccc1)C(=O)N[C@H](C(=O)N[C@@H](CO)C(=O)N[C@@H](CC(=O)O)C(=O)N[C@@H](Cc1ccc(O)cc1)C(=O)N[C@@H](CO)C(=O)N[C@H](C(=O)NC(C)(C)C(=O)N[C@@H](CC(C)C)C(=O)N[C@@H](CC(=O)O)C(=O)N[C@@H](CC(N)=O)C(=O)N[C@@H](CC(C)C)C(=O)N[C@@H](C)C(=O)N[C@@H](C)C(=O)N[C@@H](CCCNC(=N)N)C(=O)N[C@@H](CC(=O)O)C(=O)N[C@@H](Cc1ccccc1)C(=O)N[C@H](C(=O)N[C@@H](CC(N)=O)C(=O)N[C@@H](Cc1c[nH]c2ccccc12)C(=O)N[C@@H](CC(C)C)C(=O)N[C@H](C(=O)N[C@@H](CCC(N)=O)C(=O)N[C@H](C(=O)N[C@@H](CCCCN)C(=O)N[C@H](C(=O)N[C@H](C(=O)N[C@@H](CCCCN)C(=O)O)[C@@H](C)O)[C@@H](C)CC)[C@@H](C)O)[C@@H](C)CC)[C@@H](C)CC)[C@@H](C)O)[C@@H](C)CC)C(=O)O)C(=O)O
Regarding B5, the “Efficacy GLP-2R” value in assay [1] was found to be 99%. Also, in assay [2], the “Efficacy GIPR” value stood at 105%.

B6: Compound no. 26 (peptide)
peptide: H[Aib]DGK([γGlu-γGlu-Decanoyl])FISDYSTILDNLAARDFINWLIQTKITK-OH
modifications: N-terminus assumed
SMILES: CCCCCCCCCC(=O)N[C@@H](CCC(=O)N[C@@H](CCC(=O)NCCCC[C@H](NC(=O)CNC(=O)[C@H](CC(=O)O)NC(=O)C(C)(C)NC(=O)[C@@H](N)Cc1c[nH]cn1)C(=O)N[C@@H](Cc1ccccc1)C(=O)N[C@H](C(=O)N[C@@H](CO)C(=O)N[C@@H](CC(=O)O)C(=O)N[C@@H](Cc1ccc(O)cc1)C(=O)N[C@@H](CO)C(=O)N[C@H](C(=O)N[C@H](C(=O)N[C@@H](CC(C)C)C(=O)N[C@@H](CC(=O)O)C(=O)N[C@@H](CC(N)=O)C(=O)N[C@@H](CC(C)C)C(=O)N[C@@H](C)C(=O)N[C@@H](C)C(=O)N[C@@H](CCCNC(=N)N)C(=O)N[C@@H](CC(=O)O)C(=O)N[C@@H](Cc1ccccc1)C(=O)N[C@H](C(=O)N[C@@H](CC(N)=O)C(=O)N[C@@H](Cc1c[nH]c2ccccc12)C(=O)N[C@@H](CC(C)C)C(=O)N[C@H](C(=O)N[C@@H](CCC(N)=O)C(=O)N[C@H](C(=O)N[C@@H](CCCCN)C(=O)N[C@H](C(=O)N[C@H](C(=O)N[C@@H](CCCCN)C(=O)O)[C@@H](C)O)[C@@H](C)CC)[C@@H](C)O)[C@@H](C)CC)[C@@H](C)CC)[C@@H](C)CC)[C@@H](C)O)[C@@H](C)CC)C(=O)O)C(=O)O
On to B6, for which the “Efficacy GLP-2R” value in assay [1] was determined as 91%. For the same molecule, in assay [2], the “Efficacy GIPR” value was 80%.
